# pKd: −log10 of the molar value.
# How the values were obtained:
# [1] = molecular target: HCV E2 on E2-CT26 cells (Hepatitis C virus (genotype 1a)) (UniProt P27958); experiment: flow cytometry; details: Flow cytometry: 250 nM aptamer, 1e6 cells, 37 C 15 min; selection buffer 25 mM Tris-HCl, 50 mM KCl, 200 mM NaCl, 0.2 mM EDTA, 5% glycerol, 0.5 mM DTT (pH not …)
# [2] = molecular target: GST-E2 (Hepatitis C virus) (UniProt P27958); experiment: competition (flow cytometry); details: Flow cytometry: 250 nM aptamer, 1e6 cells, 37 C 15 min; selection buffer 25 mM Tris-HCl, 50 mM KCl, 200 mM NaCl, 0.2 mM EDTA, 5% glycerol, 0.5 mM DTT (pH not …); scale: % inhibition of E2 binding to Huh7.5.1 cells
Sequence,pKd [1],binding signal [2]
CGCCGTATTAAGATTGGGAGACCTGGTAGA [ZE3],8.49,–
TCCATTCATGTAACGAACATAGTTTTGGCA [ZE5],8.37,–
GGGCCTCGATTTAGTTCGCGGCCATAGGGC [ZE4],8.05,–
GAATGAGGAATAATCTAGCTCCTTCGCTGA [ZE2],8.98,80

# Reference: article PMC2780912
